According to the supplement of paper PMC10126150:
± gives the standard deviation of the averaged measurements.

Test system: ATP
Assay: switch fluorescence ratio, 500 uM ATP over buffer (Cy3 cluster intensity, sum of 5 cycles each) (fold (ratio)); higher = stronger signal-on switching upon ATP binding; sequences stand for … in TCGTCGGCAGCGTCAGATGTGTATAAGAGACAGTTTTTTTTTTTTTTTTTTTTTTTTT…TC
Details: aptamer strand: ATP DNA aptamer (quencher-CACCTGGGGGAGTATTGCGGAGGAAGG + anchor), 100 nM annealed; ATP concentration: 500 uM
Method in brief: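 Switching-strand clusters labelled with Cy3 on a modified Illumina MiSeq flow-cell were annealed to 100 nM quencher-labelled ATP aptamer, imaged in selection buffer, and re-imaged after 15 min with 500 uM ATP at 22 °C. This was done over five cycles with NaOH stripping and re-annealing in between. The fluorescence ratio is summed target-cycle over summed buffer-cycle Cy3 intensity per cluster, averaged per switch-domain sequence, excluding clusters outside 100-1000 RFU.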
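Note: ATP exposure 15 min at 22 °C before imaging.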

Row | Sequence | switch fluorescence ratio
1 | AAATTTTGAG | 1.02 ± 0.032
2 | AAATTTTTAC | 1.02 ± 0.027
3 | AAATTTTTC | 1 ± 0.021
4 | AACAAAACAA | 1.04 ± 0.055
5 | AACAAAGAGA | 1.02 ± 0.026
6 | AACAACTCTC | 1.06 ± 0.017
7 | AACAAGCCCA | 1.008 ± 0.0066
8 | AACAATTGGG | 0.978 ± 0.0039
9 | AACACGGAAC | 1.29 ± 0.027
10 | AACAGATCTG | 1.02 ± 0.014
11 | AACAGCACGA | 1.28 ± 0.1
12 | AACAGGAAAT | 0.9596 ± 0.0032
13 | AACAGGATCG | 1.01 ± 0.053
14 | AACAGGGACC | 1.04 ± 0.017
15 | AACAGGGGGT | 1.01 ± 0.032
16 | AACAGGGGTG | 1.09 ± 0.015
17 | AACAGGTTTT | 1.003 ± 0.0062
18 | AACAGTTAGG | 0.9762 ± 0.0069
19 | AACATAAAAA | 1.26 ± 0.4
20 | AACATATATT | 1.02 ± 0.028
21 | AACATCTAGC | 0.994 ± 0.031
22 | AACATGGGGG | 1.01 ± 0.023
23 | AACATGGTGC | 1.01 ± 0.011
24 | AACATTAAGC | 1.04 ± 0.021
25 | AACATTCCTT | 1.23 ± 0.08

Row | Sequence | switch fluorescence ratio
26 | AACCAGGATT | 0.9714 ± 0.0074
27 | AACCAGGGGG | 1.058 ± 0.0084
28 | AACCATACTA | 1.19 ± 0.028
29 | AACCCAAGGG | 1.09 ± 0.055
30 | AACCCGGGAG | 1.17 ± 0.2
31 | AACCGCGGGT | 1.03 ± 0.018
32 | AACCGCGTTG | 1.06 ± 0.012
33 | AACCGCTATA | 3.11 ± 1
34 | AACCGGATCG | 1.034 ± 0.01
35 | AACCGTATGG | 1 ± 0.022
36 | AACCGTCACA | 1.202 ± 0.0059
37 | AACCGTGGGG | 1.05 ± 0.042
38 | AACCGTGGTG | 1.05 ± 0.073
39 | AACCGTTCGA | 1.07 ± 0.046
40 | AACCGTTGGT | 1.01 ± 0.014
41 | AACCTCACGC | 1.73 ± 0.2
42 | AACCTGGGGG | 1.1 ± 0.15
43 | AACCTTTGTT | 1.06 ± 0.083
44 | AACCTTTTTT | 1.03 ± 0.0037
45 | AACGAAGTCG | 1 ± 0.015
46 | AACGACGGGG | 1.01 ± 0.033
47 | AACGATATTC | 1.07 ± 0.03
48 | AACGATCGCT | 1.04 ± 0.0082
49 | AACGATTTTG | 1.03 ± 0.016
50 | AACGATTTTT | 1.007 ± 0.0084

Row | Sequence | switch fluorescence ratio
51 | AACGCCGAGT | 0.9816 ± 0.0097
52 | AACGCGGCTG | 0.9967 ± 0.0046
53 | AACGCGTCTG | 1.012 ± 0.0037
54 | AACGCTTCAC | 1.65 ± 0.054
55 | AACGGACTTA | 1.25 ± 0.044
56 | AACGGCGCAT | 1.02 ± 0.052
57 | AACGGCGGGG | 1 ± 0.017
58 | AACGGGACGT | 0.961 ± 0.06
59 | AACGGGGAAC | 0.986 ± 0.014
60 | AACGGGGGCA | 0.925 ± 0.025
61 | AACGGGGTGT | 1.062 ± 0.0093
62 | AACGGGTACC | 1.09 ± 0.088
63 | AACGGTTGGC | 0.975 ± 0.017
64 | AACGTACGTT | 1.14 ± 0.015
65 | AACGTATATA | 1.13 ± 0.026
66 | AACGTCAGTT | 1.003 ± 0.0017
67 | AACGTCTTT | 1.03 ± 0.071
68 | AACGTGTTGT | 1.02 ± 0.077
69 | AACTAATTTT | 0.9961 ± 0.0024
70 | AACTACAGGC | 1.18 ± 0.11
71 | AACTACGCTT | 1.48 ± 0.099
72 | AACTACGTCT | 0.986 ± 0.055
73 | AACTAGATG | 0.982 ± 0.025
74 | AACTAGGGGA | 1.11 ± 0.13
75 | AACTATGCCT | 1.03 ± 0.037

Row | Sequence | switch fluorescence ratio
76 | AACTCGGATC | 1.01 ± 0.042
77 | AACTCGGGGG | 0.999 ± 0.027
78 | AACTGACGAA | 1.29 ± 0.019
79 | AACTGGAGGA | 0.9715 ± 0.002
80 | AACTGGCTGC | 0.993 ± 0.061
81 | AACTGTGTG | 0.987 ± 0.043
82 | AACTTAGTGG | 0.996 ± 0.028
83 | AACTTCGGTG | 0.984 ± 0.014
84 | AACTTCTGCC | 1.025 ± 0.0013
85 | AACTTGAAAT | 1.47 ± 0.69
86 | AACTTGTTTT | 1.02 ± 0.032
87 | AACTTTAACT | 1.04 ± 0.014
88 | AACTTTACTC | 1.55 ± 0.095
89 | AACTTTAGTC | 0.994 ± 0.04
90 | AACTTTAGTG | 0.991 ± 0.013
91 | AACTTTAGTT | 1.02 ± 0.027
92 | AACTTTTAAT | 1.019 ± 0.0032
93 | AAGAAATCGG | 1.01 ± 0.018
94 | AAGAACGGCG | 1.01 ± 0.052
95 | AAGAAGAAAT | 1.04 ± 0.066
96 | AAGAAGAGGT | 1.15 ± 0.17
97 | AAGAAGCTTT | 1.27 ± 0.38
98 | AAGAAGGTCC | 1.01 ± 0.019
99 | AAGAAGTGTT | 1.003 ± 0.0039
100 | AAGAATAAAT | 1 ± 0.029

Row | Sequence | switch fluorescence ratio
101 | AAGAATATGC | 0.978 ± 0.027
102 | AAGACAGCGA | 1.41 ± 0.57
103 | AAGACGCTAA | 1.18 ± 0.026
104 | AAGACGTAGG | 1.06 ± 0.034
105 | AAGACTAGTT | 0.999 ± 0.03
106 | AAGACTCGGT | 0.9518 ± 0.0012
107 | AAGAGAAAGT | 0.998 ± 0.028
108 | AAGAGATAGT | 1 ± 0.0076
109 | AAGAGATGTG | 0.985 ± 0.024
110 | AAGAGGAAAA | 1 ± 0.024
111 | AAGAGGAAGC | 0.984 ± 0.049
112 | AAGAGGCGGA | 1 ± 0.026
113 | AAGAGGGATG | 0.988 ± 0.043
114 | AAGAGGGCAG | 0.992 ± 0.0081
115 | AAGAGGGGCT | 1.015 ± 0.0018
116 | AAGAGGGGGC | 0.986 ± 0.045
117 | AAGAGGGGTT | 1.03 ± 0.062
118 | AAGAGGTCTC | 0.9681 ± 0.0023
119 | AAGAGGTGGG | 0.99 ± 0.024
120 | AAGAGTAAGC | 0.963 ± 0.013
121 | AAGAGTCGGG | 0.972 ± 0.051
122 | AAGATACAGA | 1.07 ± 0.016
123 | AAGATAGCGG | 0.9978 ± 6.2e-05
124 | AAGATCAATA | 0.9967 ± 0.0044
125 | AAGATCACGG | 0.971 ± 0.057

Row | Sequence | switch fluorescence ratio
126 | AAGATCATCT | 1.01 ± 0.023
127 | AAGATCATTG | 0.98 ± 0.041
128 | AAGATCCTTT | 0.986 ± 0.025
129 | AAGATCTCTA | 1.01 ± 0.015
130 | AAGATCTGCC | 1.04 ± 0.021
131 | AAGATGAAT | 0.975 ± 0.04
132 | AAGATGATGT | 0.986 ± 0.03
133 | AAGATGCGTA | 0.978 ± 0.016
134 | AAGATGCTTG | 0.998 ± 0.038
135 | AAGATGGTAG | 0.971 ± 0.038
136 | AAGATTAGTG | 0.9828 ± 0.0067
137 | AAGATTGGGT | 1 ± 0.049
138 | AAGCAATTAT | 1.53 ± 0.11
139 | AAGCAGGGGC | 1.14 ± 0.16
140 | AAGCAGTACC | 3.24 ± 0.72
141 | AAGCATAGGG | 1.02 ± 0.015
142 | AAGCATAGTC | 1.06 ± 0.036
143 | AAGCATAGTT | 0.993 ± 0.011
144 | AAGCATGGGC | 1.02 ± 0.029
145 | AAGCCCAGGG | 1.403 ± 0.0054
146 | AAGCCGCTAG | 1.11 ± 0.026
147 | AAGCGACTCG | 1.006 ± 0.0056
148 | AAGCGAGGGC | 1.06 ± 0.035
149 | AAGCGCAGAC | 2.32 ± 0.079
150 | AAGCGCTGTG | 1.03 ± 0.047

Row | Sequence | switch fluorescence ratio
151 | AAGCGGAAGG | 1.05 ± 0.02
152 | AAGCGGAGAT | 1.02 ± 0.0065
153 | AAGCGGGGGG | 1.03 ± 0.015
154 | AAGCGGGTGG | 1.05 ± 0.028
155 | AAGCGGTTG | 1.005 ± 0.006
156 | AAGCGTAAAA | 0.979 ± 0.024
157 | AAGCTAAATG | 1.01 ± 0.05
158 | AAGCTAGGGA | 1.01 ± 0.05
159 | AAGCTCCATT | 0.967 ± 0.016
160 | AAGCTCGTTG | 1.01 ± 0.031
161 | AAGCTGAAGT | 1.03 ± 0.035
162 | AAGCTGACAG | 1.01 ± 0.013
163 | AAGCTGTTAC | 1.6 ± 0.081
164 | AAGCTTACGG | 1.06 ± 0.056
165 | AAGCTTGCCT | 0.9871 ± 0.0013
166 | AAGCTTGGCT | 0.965 ± 0.028
167 | AAGGAAAACG | 0.969 ± 0.021
168 | AAGGAAGACA | 0.995 ± 0.03
169 | AAGGAAGCGT | 0.9883 ± 0.0045
170 | AAGGAAGGCC | 1.0145 ± 0.00052
171 | AAGGAAGTTT | 1.06 ± 0.18
172 | AAGGAATGGT | 1.05 ± 0.041
173 | AAGGAATTGG | 0.992 ± 0.0042
174 | AAGGACTGAA | 0.9994 ± 0.0078
175 | AAGGACTTGG | 1.01 ± 0.014

Row | Sequence | switch fluorescence ratio
176 | AAGGAGCAGT | 0.985 ± 0.13
177 | AAGGAGGATT | 1 ± 0.028
178 | AAGGAGGCTT | 1.05 ± 0.066
179 | AAGGAGGGGC | 1.06 ± 0.13
180 | AAGGAGGGT | 0.9965 ± 0.0096
181 | AAGGAGGTCA | 0.977 ± 0.021
182 | AAGGATAAAC | 1.01 ± 0.039
183 | AAGGATATGG | 1.02 ± 0.016
184 | AAGGATGCGA | 1.039 ± 0.0079
185 | AAGGATGGCC | 1.01 ± 0.021
186 | AAGGATGTTG | 0.9998 ± 0.0017
187 | AAGGATTAAT | 0.987 ± 0.016
188 | AAGGATTAGC | 1.04 ± 0.11
189 | AAGGATTCGC | 1 ± 0.072
190 | AAGGATTTTG | 0.994 ± 0.022
191 | AAGGCAAATA | 1.04 ± 0.037
192 | AAGGCAAGAT | 1.04 ± 0.064
193 | AAGGCAAGGG | 1.01 ± 0.028
194 | AAGGCAAGTG | 0.989 ± 0.054
195 | AAGGCCTTCT | 0.994 ± 0.011
196 | AAGGCGGATA | 0.96 ± 0.013
197 | AAGGCGGGG | 0.991 ± 0.011
198 | AAGGCGTACT | 1.03 ± 0.026
199 | AAGGCTAAAA | 1.016 ± 0.0059
200 | AAGGCTAAGC | 1.024 ± 0.0026
